{
  "source": "patent US7125658B2",
  "about": "“Small protein that interacts with a ribonucleotide reductase subunit and uses thereof” (The Trustees of Columbia University in the City of New York, priority 1998, dated 2006)",
  "target": "T1, yeast RNR (Saccharomyces cerevisiae, UniProt P21524)",
  "T1 construct": "made in house; host or cells: E. coli BL21 (DE3), pET3a",
  "T1 sequence (P21524 1-888)": "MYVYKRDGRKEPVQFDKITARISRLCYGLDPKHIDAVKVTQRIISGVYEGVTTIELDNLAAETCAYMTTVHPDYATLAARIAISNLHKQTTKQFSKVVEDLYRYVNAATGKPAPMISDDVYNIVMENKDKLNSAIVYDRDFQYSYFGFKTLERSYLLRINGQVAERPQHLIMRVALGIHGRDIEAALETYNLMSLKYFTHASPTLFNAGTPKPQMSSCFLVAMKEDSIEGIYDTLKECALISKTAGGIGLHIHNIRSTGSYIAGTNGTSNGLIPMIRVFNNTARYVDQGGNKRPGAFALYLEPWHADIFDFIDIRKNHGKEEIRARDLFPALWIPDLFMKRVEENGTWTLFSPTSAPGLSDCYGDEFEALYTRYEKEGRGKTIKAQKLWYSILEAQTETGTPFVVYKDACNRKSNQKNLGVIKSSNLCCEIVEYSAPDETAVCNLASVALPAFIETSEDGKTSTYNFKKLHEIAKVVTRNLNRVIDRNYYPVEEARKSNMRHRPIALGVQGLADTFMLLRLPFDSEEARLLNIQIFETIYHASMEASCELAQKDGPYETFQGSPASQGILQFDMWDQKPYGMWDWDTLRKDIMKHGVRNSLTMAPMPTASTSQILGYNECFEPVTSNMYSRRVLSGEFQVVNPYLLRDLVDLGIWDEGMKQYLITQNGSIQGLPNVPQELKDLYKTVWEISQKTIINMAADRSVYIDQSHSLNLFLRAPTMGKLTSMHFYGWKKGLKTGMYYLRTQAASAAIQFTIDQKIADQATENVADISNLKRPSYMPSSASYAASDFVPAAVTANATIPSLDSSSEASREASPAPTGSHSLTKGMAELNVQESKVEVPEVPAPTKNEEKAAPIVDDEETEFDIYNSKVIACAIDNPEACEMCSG",
  "test": "in vitro yeast ribonucleotide reductase CDP reduction assay",
  "type": "biochemical",
  "description": "FIG. 9 Inhibition of yeast RNR by Sml1p. A series of tubes containing yeast RNR ([…]) were incubated at 30° C. for 30 min in a final volume of 50 μl: 25 nmol of [^3H]CDP (specific activity 37000 cpm/nmol), 2 μmol of Tris-HCl, pH 7.6, 0.125 μmol of ATP, 0.32 μmol of MgCl^2, 0.5 μmol of dithiothreitol, 5 μmol of KCl and 1 nmol of FeCl3. In addition, the tubes contained increasing amounts of Sml1p. After incubation, the samples were processed as described earlier to obtain the amount of dCDP formed (22).\nFIG. 10 Inhibition of yeast RNR by nonapeptides corresponding to the C terminal ends of Sml1p, Rnr2p or Rnr4p. […] 9 in the presence of increasing amounts of nonapeptide. Sml1 peptide, ã; Rnr2 peptide, o; Rnr4 peptide, x.\nInhibition of yeast ribonucleotide reductase by the Sml1 protein. Recombinant yeast ribonucleotide reductase was assayed for activity using a CDP reduction assay, with ATP as a positive effector in the presence of increasing amounts of Sml1 protein (FIG. 9). A molar ratio of 1:1 between Rnr1p monomer (MW 100000) and Sml1p (MW 11800) gave about 50% inhibition.\nInhibition of yeast ribonucleotide reductase by nonapeptides corresponding to the C-terminal ends of Sml1p, Rnr2p or Rnr4p. […] Since such peptides are known to inhibit RNR activity by binding to the R1 protein and preventing R1/R2 interaction, we wanted to study the influence of a C-terminal nonapeptide of Sml1p on yeast RNR activity.",
  "data": [
    {"molecule": "Sml1p: 104 amino acid yeast protein encoded by YML058w (SML1) that binds Rnr1 and inhibits ribonucleotide reductase; recombinant, expressed in E. coli (protein) MQNSQDYFYAQNRCQQQQAPSTLRTVTMAEFRRVPLPPMAEVPMLSTQNSMGSSASASASSLEMWEKDLEERLNSIDHDMNNNKFGSGELKSMFNQGKVEEMDF", "values": [
      {"measurement": "efficiency in inhibiting yeast RNR activity relative to its C terminal nonapeptide, on a molar basis", "value": "about 200 times"},
      {"measurement": "type of inhibition versus Rnr2p/Rnr4p heterodimer", "setting": "Rnr2p/Rnr4p 1 to 32 μg, Rnr1p 2 μg, Sml1p 0, 0.2 and 2 μg", "value": "noncompetitive inhibition"},
      {"measurement": "inhibition of yeast RNR", "setting": "molar ratio of 1:1 between Rnr1p monomer and Sml1p, CDP reduction, ATP as positive effector", "value": "about 50%"}
    ]}
  ]
}
